Data as given in patent publication US20240083991A1 (Pfizer, published 2024).

Experiments:
human GDF8 = biological target: T1, human GDF8 (human, UniProt O14793 267-375); experiment: cell-based or functional assay
T1 sequence (looked up): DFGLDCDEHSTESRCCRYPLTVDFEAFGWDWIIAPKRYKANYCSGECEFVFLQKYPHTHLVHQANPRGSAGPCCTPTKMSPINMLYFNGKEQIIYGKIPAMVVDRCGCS

human mature BMP9 [1] = biological target: T2, human mature BMP9 (human, UniProt Q9UK05 320-429); experiment: competition ELISA: antibody mixed with 1.5 nM BMP9-biotin, binding to coated BMPRII (2 µg/ml) detected
T2 construct: also called GDF2; Human BMP9-biotin
T2 sequence: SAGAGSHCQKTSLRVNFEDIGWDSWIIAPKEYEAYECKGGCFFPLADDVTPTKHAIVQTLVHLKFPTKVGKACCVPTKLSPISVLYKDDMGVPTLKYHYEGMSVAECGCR
Description: (§1) For competition ELISAs, each receptor protein was coated on a 384-well ELISA plate at its optimal coating concentration, 20 μl/well in PBS-CMF at 4° C. overnight. The next day, plates were washed 3 times with PBS+0.05% TWEEN™ 20 and blocked with PBS+1% BSA for 1 hr at RT with shaking. Anti-BMP9 Abs were serially diluted 3-fold in PBS+1% BSA, starting from 100 nM, then mixed with the same volume of the optimal concentration of biotinylated BMP9. The final concentration of biotinylated BMP9 corresponded to the EC₉₀ for each receptor, as determined in a preliminary experiment described above.
(§2) Serially diluted Abs were incubated with biotinylated BMP9 for at least 15 min at RT. Plates were washed as before, followed by addition of serially diluted Abs and the biotinylated BMP9 mixture. After incubating for 1 hr at RT, plates were washed 3 times with PBS+0.05% TWEEN™ 20. Secondary antibody was added (HRP-Streptavidin from BioLegend, cat #405210, 1:2000), followed by 1 hr incubation at RT. Plates were washed as before, signal was developed using TMB substrate, and the reaction stopped with 0.18 M H₂SO₄. Absorbance was read at 450 nm on an ENVISION® plate reader (Perkin Elmer).

human mature BMP9 [2] = biological target: T2, human mature BMP9; experiment: competition ELISA: antibody mixed with 15 nM BMP9-biotin, binding to coated ActRIIB (5 µg/ml) detected
Description: as §1, §2

human mature BMP9 [3] = biological target: T2, human mature BMP9; experiment: competition ELISA: antibody mixed with 5 nM BMP9-biotin, binding to coated ActRIIA (5 µg/ml) detected
Description: as §1, §2

human mature BMP9 [4] = biological target: T2, human mature BMP9; experiment: cell-based or functional assay
human mature BMP9 [5] = biological target: T2, human mature BMP9; experiment: cell-based or functional assay; remark: listed apart in the source
human mature BMP9 [6] = biological target: T2, human mature BMP9; experiment: competition ELISA: antibody mixed with 0.6 nM BMP9-biotin, binding to coated BMPRII (1 µg/ml) detected
Description: as §1, §2

cyno BMP9 (mature) = biological target: T3, cyno BMP9 (mature) (cynomolgus monkey, UniProt G7PEU8 320-429); experiment: SPR (Biacore T200), 37° C., biotinylated BMP9 captured on Sensor Chip CAP, Fab as analyte, 1:1 model
T3 construct: mature; Biotinylated for SPR capture; also called Cyno BMP9-biotin; cynomolgus monkey BMP9
T3 sequence: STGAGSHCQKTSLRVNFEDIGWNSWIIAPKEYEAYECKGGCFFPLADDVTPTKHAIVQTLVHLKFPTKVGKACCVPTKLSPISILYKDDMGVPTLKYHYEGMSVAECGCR
Description: (§3) The running and sample buffer was 10 mM HEPES pH 7.4, 0.15 M NaCl, 3 mM EDTA, 0.05% P-20 (HBS-EP+). Biotinylated mature human, cyno, and rat BMP9 proteins were reversibly captured onto a Sensor Chip CAP using the Biotin CAPture Reagent (Cytiva, 28920234) according to the manufacturer's instructions. The final capture level of human BMP9 was 100 resonance units (RU), cyno BMP9 was 50 RU, and rat BMP9 was 60 RU. Flow cell 1, without BMP9, was used as a reference flow cell. A two-fold dilution series of the Ab1076 Fab ranging from 100 nM to 6.2 nM was injected for 60 seconds at a flow rate of 100 μl per minute and the dissociation was monitored for 1800 seconds. Rate constants and affinities were determined by fitting the double referenced sensorgram data to a 1:1 model in BIACORE™ Insight Evaluation software version 3.0.1.12.15655 (Cytiva).

rat BMP9 (mature) = biological target: T4, rat BMP9 (mature) (rat, UniProt M0RB87 320-430, Chemically biotinylated for capture on the SPR chip; sites not stated. Natural mature BMP9 is a disulfide-linked homodimer; one monomer chain is given.); experiment: as above
T4 construct: Biotinylated for SPR capture; also called Rat BMP9-biotin
T4 sequence: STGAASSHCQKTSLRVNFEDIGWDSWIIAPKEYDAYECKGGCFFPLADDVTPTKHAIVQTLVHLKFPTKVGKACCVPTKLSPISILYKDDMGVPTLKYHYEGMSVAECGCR
Description: as §3

human mature BMP9 [7] = biological target: T2, human mature BMP9; experiment: as above
Description: as §3

B1: Ab732 (antibody, human IgG1, lambda, V domains shown)
VH: QVQLVQSGAEVKKPGASVKVSCKASGYTFTSYGISWVRQAPGQGLEWMGWISAYIGNTNYAQKLQGRVTMTTDTSISTAYMELSRLRSDDTAVYYCARAYYMDVWGQGTTVTVSS
VL: NFMLTQPHSVSESPGKTVTISCTGSSGNIASNYVQWYQQRPGSAPTTVIYEDKQRPSGVPDRFSGSIDRSSNSASLTISGLKTEDEADYYCQSYDNHLSVVFGGGTKLTVLG
Human GDF8
  IC50 (read off the curve): GDF8-induced CAGA-luciferase activity, C2C12 reporter cells: ~600 nM

B2: Ab89 (antibody, human IgG1, lambda, V domains shown)
VH: QVQLVQSGAEVKKPGASVKVSCKASGYTFTSYYMHWVRQAPGQGLEWMGIINPSGGSTSYAQKFQGRVTMTRDTSTSTVYMELSSLRSEDTAVYYCASRDYYGSGRVYYYYGMDVWGQGTTVTVSS
VL: NFMLTQPHSVSESPGKTVTISCTGSSGSIASNYVQWYQQRPGSAPTTVIYEDNQRPSGVPDRFSGSIDSSSNSASLTISGLKTEDEADYYCQSYDSSIHVVFGGGTKLTVLG
notes: Parental anti-BMP9 antibody from a human phage library, human IgG1/lambda; The heavy chain can be prepared with or without the C-terminal lysine
Human mature BMP9 [1]
  IC50 (read off the curve): ~4 nM
Human mature BMP9 [2]
  IC50 (read off the curve): ~8 nM
Human mature BMP9 [3]
  IC50 (read off the curve): ~2 nM

B3: Ab101 (antibody, human IgG1, lambda, V domains shown)
VH: QVQLVQSGAEVKKPGASVKVSCKASGYTFTSYGISWVRQAPGQGLEWMGWISAYNGNTNYAQKLQGRVTMTTDTSTSTAYMELRSLRSDDTAVYYCARAYGMDVWGQGTTVTVSS
VL: NFMLTQPHSVSESPGKTVTISCTGSSGSIASNYVQWYQQRPGSAPTTVIYEDKQRPSGVPDRFSGSIDRSSNSASLTISGLKTEDEADYYCQSYDNSLSVVFGGGTKLTVLG
notes: Parental clone converted to human IgG1/lambda; The heavy chain can be prepared with or without the C-terminal lysine; also called BMP9-0101
Human mature BMP9 [4]
  IC50 (read off the curve): BMP9-induced pSMAD1/5/9 nuclear translocation, TIME cells: ~80 nM
Human mature BMP9 [2]
  IC50 (read off the curve): ~10 nM
Human mature BMP9 [3]
  IC50 (read off the curve): ~3 nM

B4: Ab93 (antibody, human IgG1, lambda, V domains shown)
VH: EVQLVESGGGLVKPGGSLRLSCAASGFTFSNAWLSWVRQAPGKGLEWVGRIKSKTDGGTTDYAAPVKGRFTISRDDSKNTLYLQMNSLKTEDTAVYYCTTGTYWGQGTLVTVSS
VL: QSVLTQPPSASGTPGQRVTISCSVTNSDIDIDNVHWYQQLPGMAPKLLFFHDYRPSGVSDRFSGSKSGTSASLAIVGLQSEDEGYYYCAGLDVAMRGPVFGGGTKLTVLG
notes: Parental clone converted to human IgG1/lambda; The heavy chain can be prepared with or without the C-terminal lysine; also called BMP9-0093
Human mature BMP9 [4]
  IC50 (read off the curve): BMP9-induced pSMAD1/5/9 nuclear translocation, TIME cells: ~0.1 nM
Human mature BMP9 [1]
  IC50 (read off the curve): ~4 nM
Human mature BMP9 [5]
  IC50 (read off the curve): BMP9-induced pSMAD2 nuclear translocation, TIME cells: ~0.08 nM
Human mature BMP9 [2]
  IC50 (read off the curve): ~7 nM
Human mature BMP9 [6]
  IC50 (read off the curve): ~0.5 nM
Human mature BMP9 [3]
  IC50 (read off the curve): ~1 nM

B5: Ab352 (antibody, human IgG1, lambda, V domains shown)
VH: EVQLVESGGGLVQPGGSLRLSCAASGFTFSNAWMSWVRQAPGKGLEWVGRIKSKTDSGTTDYAAPVKGRFTISRDNAKNSLYLQMNSLRAEDTAVYYCTTGTYWGQGTLVTVSS
VL: QSVLTQPPSASGTPGQRVTISCSVTNSDIDIFNVHWYQQLPGTAPKLLFFHDYRPSGVSDRFSGSKSGTSASLAISGLRSEDEADYYCAGLDVAMRGPVFGGGTKLTVLG
notes: Optimized variant of Ab93; The heavy chain can be prepared with or without the C-terminal lysine
Human mature BMP9 [4]
  IC50 (read off the curve): BMP9-induced pSMAD1/5/9 nuclear translocation, TIME cells: ~0.05 nM
Human mature BMP9 [6]
  IC50 (read off the curve): ~0.2 nM

B6: Ab1076 Fab (Fab, V domains shown)
VH: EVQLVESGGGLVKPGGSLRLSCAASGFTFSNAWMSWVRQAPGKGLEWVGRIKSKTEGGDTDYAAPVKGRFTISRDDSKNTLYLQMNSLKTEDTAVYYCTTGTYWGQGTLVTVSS
VL: QSVLTQPPSASGTPGQRVTISCSVTNTDIDIFNVHWYQQLPGTAPKLLFFHDYRPSGVSDRFSGSKSGTSASLAIVGLQSEDEGYYYCAGLDEAMRGPVFGGGTKLTVLG
notes: Monovalent Fab fragment of Ab1076; also called Ab1076 Fab fragment
Cyno BMP9 (mature)
  Kd: 0.0658 nM
  koff: 3.84e-05 s⁻¹
  kon: 585000 M⁻¹ s⁻¹
Rat BMP9 (mature)
  Kd: 0.0986 nM
  koff: 5.14e-05 s⁻¹
  kon: 532000 M⁻¹ s⁻¹
Human mature BMP9 [7]
  Kd: 0.0874 nM
  koff: 3.84e-05 s⁻¹
  kon: 440000 M⁻¹ s⁻¹

B7: Ab804 (antibody, human IgG1, lambda, V domains shown)
VH: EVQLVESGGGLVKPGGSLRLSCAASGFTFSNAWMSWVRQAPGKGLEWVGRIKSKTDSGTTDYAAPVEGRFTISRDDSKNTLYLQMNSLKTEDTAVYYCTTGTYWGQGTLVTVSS
VL: QSVLTQPPSASGTPGQRVTISCSVTNPDIDIFNVHWYQQLPGTAPKLLFFHEYRPSGVSDRFSGSKSGTSASLAIVGLQSEDEGYYYCAGLDEAMRGPVFGGGTKLTVLG
notes: as for B5
Human mature BMP9 [6]
  IC50 (read off the curve): ~0.2 nM

B8: Ab100 (antibody, human IgG1, lambda, V domains shown)
VH: QMQLVQSGAEVKKPGSSVKVSCKASGGTFSSYAISWVRQAPGQGLEWMGGIIPIFGTANYAQKFQGRVTITADESTSTAYMELSSLRSEDTAVYYCARVQLDLSYYYYYGMDVWGQGTTVTVSS
VL: QSALTQPASVSGSPGQSITISCTGTSSDVGSYNLVSWYQQHPGKAPKLMIYEVSKRPSGVSDRFSGSKSANTASLTISGLQAEDEADYYCSSFSINGPSFVFGTGTKVTVLG
notes: Parental anti-BMP9 antibody, human IgG1/lambda; The heavy chain can be prepared with or without the C-terminal lysine
Human mature BMP9 [1]
  IC50 (read off the curve): ~4 nM
Human mature BMP9 [2]
  IC50 (read off the curve): ~8 nM
Human mature BMP9 [3]
  IC50 (read off the curve): ~3 nM
